Test results: the nanobody polyreactivity screen of Harvey et al. (2022)

Test: yeast display, Sf9 membrane polyspecificity reagent, FACS + sequencing; frameworks hold sequencing errors
Outline: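 Sorting gates, low and high (top ~1%), were placed on anti-HA fluorescence to track expression and on streptavidin fluorescence to track reagent binding. A clone's polyreactivity label is taken from the gate it came out of. The reagent was 10% biotinylated, detergent-solubilized Sf9 membrane, applied for 1 hour at 4 °C to galactose-induced yeast display cells.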

Row | Sequence | polyreactivity (PSR sort gate)
1 | QVQLVESGGGLVQAGGSLRLSCAASGRTFYIYTMGWYRQAPGKERELVAAISGRGGRTYYADSVKGSFTISRDNAKNTVYLQMNSLKPEDTAVYYCARGGRVRYDYWGQGTQVTVSS | low polyreactivity
2 | QVQLVESGGGLVQAGGSLRLSCAASGRTFYKNAMGWYRQAPGKERELVAAISQRGGGTYYADSVKGRFTISRDNAKNTVYLQMNSLKPEDTAVYYCNAPLVFIHGSDYWGQGTQVTVSS | high polyreactivity
3 | QVQLVESGGGLVQAGGSLRLSCAASGRTFYKNAMGWYRQAPGKERELVAAISYGGGSTYYADSVKGRFTISRDNAKNTVYLQMISLKPEDTAVYYCATQLPFRKPWHDYWGQGTQVTVSS | high polyreactivity
4 | QVQLVESGGGLVQAGGSLRLSCAASGRTFYKNAMGWYRQAPGKERELVARISRGGSTNYADSVKGRFTISRDNAKNTVYLQMYSVKPEESAVYYCATEYGTHGKTYDYWGQGSQVTVSS | high polyreactivity
5 | QVQLVESGGGLVQAGGSLRLSCAASGRTFYKNTMGWYRQAPGKERELVATISQRGGSTYYADSVKGRFTISRDNAKNTVYLQMNSLKPEDTAVYYCNARRTSYTSQGYDYWGQGTQVTVSS | high polyreactivity
6 | QVQLVESGGGLVQAGGSLRLSCAASGRTFYKYAMGWYRQAPGKERELVAAISSRGGRTYYADSVKGRFTISRDNATNTVYLQMNSLKPEDTAVYYCAAKGRPDGKYDYWGQGTQVTVSS | high polyreactivity
7 | QVQLVESGGGLVQAGGSLRLSCAASGRTFYKYGMGWYRQAPGKERELVARINSNGGSTYYADSVKGRFTISRDNAKNTVYLQMNSLKPADTAVYYCARSYVRSYGYYYWGQGPQVTVSS | low polyreactivity
8 | QVQLVESGGGLVQAGGSLRLSCAASGRTFYKYGMGWYRQAPGKERELVASISSGGNTYYADSVKGRFTISRDNAKNTVYLQMNSLKPEDTAVYYCNAGYWAKFDYWGQGTQVTVSS | high polyreactivity
9 | QVQLVESGGGLVQAGGSLRLSCAASGRTFYKYGMVLYRKAPGKERELVAAIRWSGGSTYYADSVKGRFTISRDNAKYTVYFQMNSLKPEDTAVYYCATRSGFGYGYWGQGTQVNVSS | high polyreactivity
10 | QVQLVESGGGLVQAGGSLRLSCAASGRTFYLYAMGWYRPAPGKERELVAAITSGGSTNYADSVKGRFTISRDNAKNTVYLQMNSLKPEDTAVYYCNAYKRGYLYRYNYWGQGTQVTVSS | high polyreactivity
11 | QVQLVESGGGLVQAGGSLRLSCAASGRTFYLYAMGWYRPAPGKERELVAAITWSGGSTYYADSVKGRFTISRYNAKNTVFLQMNSLKPEDTAVYYCAAGLYLFQIWFGNEYDYWGQGTQVTVSS | high polyreactivity
12 | QVQLVESGGGLVQAGGSLRLSCAASGRTFYLYAMGWYRQAPGKERELVAAITRRGGSTYYADSVKGRFTISRDNAKNTVYLQMNSLKPEDTAVYYCAADRPGTGYSDYDYWGQGTQVTVSS | high polyreactivity
13 | QVQLVESGGGLVQAGGSLRLSCAASGRTFYLYAMGWYRQAPGKVRELVAAITRRGGSPYYADSVKGRFTISRDNAKNTVYLQMNSLKPEDTAVSYCAADRPGTGYSDYDYWGQGTQVTVSS | high polyreactivity
14 | QVQLVESGGGLVQAGGSLRLSCAASGRTFYLYARGWYRQAPGKERELVAAITRSGGSTYYADSVKGRFTISRDNAKNTVYLQMNSLKPEDTAVYYCAAYSYYGAGDRAYDYWGQGTQVTVSS | high polyreactivity
15 | QVQLVESGGGLVQAGGSLRLSCAASGRTFYLYTMGWYRQAPGKERELVAAITRGGNTYYADSVKGRFTISRDNAKNTVYLQMNSLKPEDTAVYYCAAADYTTPVPYGRKGFDYWGQGTQVTVSS | low polyreactivity
16 | QVQLVESGGGLVQAGGSLRLSCAASGRTFYNNAMGWYRPAPGKERELVAAISQRTGRTYYADSVKGRFTISRDNAKNTVYLQMNSLKPEDTAVYYCNKVAYYSRRMDYWGQGTQVTVSS | high polyreactivity
17 | QVQLVESGGGLVQAGGSLRLSCAASGRTFYNYAMGWYRQAPGKERELVAAIRGSGGSTYYADSVKGRFTISRDNAKNTVYLQMNSLKPEETAVYYCNAVSQSSEYDYWGHGTQVTVSS | high polyreactivity
18 | QVQLVESGGGLVQAGGSLRLSCAASGRTFYPNTMGWYRQAPGKERELVAAIRSSGGSTYYADSVKGRFTISRDNAKKTVYLQMNSLKPEDTAVYYCAAKGRSSYFYWFDYWGQGTQVTVSS | high polyreactivity
19 | QVQLVESGGGLVQAGGSLRLSCAASGRTFYPYAMGWYRQAPGKEREFVAVINRSVGSPYYADSVNGRFTISRDNAKNTVYLQMNSLKPEDTAVYYCAAREPLSYYVGGDYWGQGTQVTVSS | low polyreactivity
20 | QVQLVESGGGLVQAGGSLRLSCAASGRTFYPYAMGWYRQAPGKERELVAAINWRDGSTYYADSVKGRFTISRDNAKNTVYLQMNSLKPEDTAVYYCAADYYWWQYDYWGQGTQVTVSS | high polyreactivity
21 | QVQLVESGGGLVQAGGSLRLSCAASGRTFYQYAMGWYRQARGKERELVAAISRRGGSTYYADSVKGRFTISRDNAKNTVYLQMNSLKPEDTAVYYCAARVRGKYDYWGQGTQVTVSS | high polyreactivity
22 | QVQLVESGGGLVQAGGSLRLSCAASGRTFYRNAMGWSRQAPGKEREFVAVISVSGGSTYYADSVKGRFTISRDNAKNTVYLQMNSLKPEDTAVYYCAKRGPVRKTAYDYWGQGTQVTVSS | low polyreactivity

Row | Sequence | polyreactivity (PSR sort gate)
23 | QVQLVESGGGLVQAGGSLRLSCAASGRTFYRNAMGWYRQAPGKERELVAAITRGGRTYYADSVKGRFTISRDNAKNTVYLQMNSLKPEDTAVYYCNAVSYSSTLASKIPDDYWGQGTQVTVSS | high polyreactivity
24 | QVQLVESGGGLVQAGGSLRLSCAASGRTFYRNAMGWYRQAPGKERELVAAITWSGVSTYYADSVKGRFTISRDNAKNTVYLQMNSLKPEDTAVYYCARGRVLRNGHYFQLRNYDYWGQGTQVTVSS | high polyreactivity
25 | QVQLVESGGGLVQAGGSLRLSCAASGRTFYRNAMGWYRQAPGKERELVAGITRGGRTYYADSVKGRFTISRDNAKNTVYLQMNSLKPEDTAVYYCAKGRSWQIYYKGGIKGGYWGQGTQVTVSS | low polyreactivity
26 | QVQLVESGGGLVQAGGSLRLSCAASGRTFYRNDMGWYRQEPGKEREFVAAITSSGGTTYADSVKGRFTISRDNAKNTVYLQMNSLKPEDTAVYYCNTVLYPYWQWDYEFDYWGQGTQVTVSS | low polyreactivity
27 | QVQLVESGGGLVQAGGSLRLSCAASGRTFYRNDRGWYRQAPGKERELVAAITSSGGTTYADSVKGRFTISRDNAKNTVYLQMNSLKPEDTAVYYCNTVLYAYWQWDYEFDYWGQGTQVTVSS | low polyreactivity
28 | QVQLVESGGGLVQAGGSLRLSCAASGRTFYRSVMGWYRQAPGKERELVAAITPGGSTYADSVKGRFTISRDNAKKTVSLQMNSLKPEDTAVNYCNKRKASSSGYNYWGQVTQVTVSS | low polyreactivity
29 | QVQLVESGGGLVQAGGSLRLSCAASGRTFYRYAMGWSRQAPGKERELVATISGSGGSTYYADSVKGRFTISRDNAKNTVYLQMNSLKPEDTAVYYCNAVWRFPIGRTAPRYDYWGQGTQVTVSS | high polyreactivity
30 | QVQLVESGGGLVQAGGSLRLSCAASGRTFYRYAMGWYRQAPGKEREFVAAISNGGSNTRYADSVKGRFTISRDNATNTVYLQMNSLKPEDTAVYYCAASAYQHYNWGQGTQVTVSS | high polyreactivity
31 | QVQLVESGGGLVQAGGSLRLSCAASGRTFYRYAMGWYRQAPGKERELVAAISSNGGSTYYADSVKGRFTISRDNAKNTVYLQMNSLKPEDTAVYYCYYYYSRLFDYWGQGTQVTVSS | high polyreactivity
32 | QVQLVESGGGLVQAGGSLRLSCAASGRTFYRYAMGWYRQAPGKERELVAAITGGGGSTYYADSVKGRFTISRDNAKNTVYLQMNSLKPEDTAVYYCNRRSYGFISYNFWGQGTQVTVSS | high polyreactivity
33 | QVQLVESGGGLVQAGGSLRLSCAASGRTFYRYAMGWYRQAPGKERELVASINRGGSTNYADSVKGRFTISRDNAKNTVFLQMNCLKPEDTAVYYCACYCYCYWGQGTQVTVSS | low polyreactivity
34 | QVQLVESGGGLVQAGGSLRLSCAASGRTFYRYAMGWYRQAPGKERELVATISRSGGSTYYADSVKGRFTISRDNAKYTVYLQMKSLNPEDTAVYYCNAEGYPWGFYTYDYWGQGTQVTVSS | low polyreactivity
35 | QVQLVESGGGLVQAGGSLRLSCAASGRTFYRYAMGWYRQAPGKERELVAVITSGSRTKYADSVKGRFTISRDNAKNTVYLQMNSLKPEDTAVYYCAARGLALEGKSSGEYWGQGTQVTVSS | high polyreactivity
36 | QVQLVESGGGLVQAGGSLRLSCAASGRTFYRYAMGWYRQAPGKERELVAVITSGSRTKYADSVKGRFTISRDNAKNTVYLQMNSLKPEDTAVYYCAARVLALEGKSSGEYWGQGTQVTVSS | high polyreactivity
37 | QVQLVESGGGLVQAGGSLRLSCAASGRTFYRYSMGWYRQAPGKERELVAGISTRGGSTYYADSVKGRFTISRDNAKNTVYLQMNSLKPEDTAVYYCAAAPLAFRYDYWGQGTHVTVSS | high polyreactivity
38 | QVQLVESGGGLVQAGGSLRLSCAASGRTFYRYVMGWYRQAPGKERELVAAISKSDGSTYYADSVKGRFTISRDNAKNSVYLQMNSLKPEDTAVYYCNARLSWSAFGYWGQGTQVTVSS | high polyreactivity
39 | QVQLVESGGGLVQAGGSLRLSCAASGRTFYSNAMGWYRPAPGKERELVAAITFGGGSTYYADSVKGRFTISRDNAKNTVYVQMNSLKPEDTAVYYCAAEGYKYRFYYWGQGTQVTVSS | low polyreactivity
40 | QVQLVESGGGLVQAGGSLRLSCAASGRTFYSNAMGWYRQAPGKETELVAAISNRGGSTYYADSLKGRFTISRDNAKNTVYLQMNSLKPEYTAVYYCARYPTKYGYWGQGTQVTVSS | high polyreactivity
41 | QVQLVESGGGLVQAGGSLRLSCAASGRTFYSNARGWSRQAPGKERELVARISNGGSTHYADSVKGRFTISRDNAKNTVYLQMNSLKPEDTAVYYCNTDRGHFYTYPYTYYRLGYWGQGTQVTVSS | low polyreactivity
42 | QVQLVESGGGLVQAGGSLRLSCAASGRTFYSYAMGWYRQAPGKERELVAAISKRGTSTYYADSVKGRFTISRDNAKNTVYLQMNSLKPEDTAVYYCAAAYRGREVEYNCWGQGTQVTVSS | high polyreactivity
43 | QVQLVESGGGLVQAGGSLRLSCAASGRTFYSYAMGWYRQAPGKERELVAAISRAGGTYYADSVKGRFTISRDNAKNTVYLQMNSLKPEDTAVYYCAARQAVYGLRSDFYYWGQGTQVTVSS | high polyreactivity
